From the supplement of paper PMC12042874
± gives the uncertainty stated by the source.

Assay: amyloid nucleation score (Sup35N fusion, yeast selection) (log enrichment); library NNK1; higher = more nucleation; inactive = no reads after selection
In short: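 Three technical output replicates were used for random libraries. Psi-negative yeast expressing peptides of 20 random codons fused to Sup35N were induced with 100 μM copper sulfate for 24 hours and grown 7 days at 30°C on medium lacking adenine and uracil, and input and output plasmid inserts were Illumina-sequenced, excluding sequences with under 100 input reads. The nucleation score is the DiMSum log enrichment of output over input reads, centred on the mode score of non-aggregating sequences.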

| Substance | amyloid nucleation score |
| --- | --- |
| IMETHLFLTETGNLLSKMGD | inactive |
| YVLFFSPCT | inactive |
| DSMKMIILVDVGRNHGLGHR | 3.32 ± 0.16 |
| FYISNMM | -1.35 ± 0.74 |
| RNSRICSFS | 0.59 ± 0.35 |
| LNYIQNC | inactive |
| GTHEVLCNDHPCVYRHILRC | -0.753 ± 0.3 |
| IFHLCFLKGNGSFMLYKRHT | -0.462 ± 0.51 |
| RFFMTHSYELYLEFRGAARR | 1.28 ± 0.42 |
| TLNGFPLSISTANCEVRYDK | 0.005 ± 0.9 |
| LTSCASLWEDRVVLSCLPGG | inactive |
| QCLRWDPGI | 1 ± 0.51 |
| SDEGN | 1.55 ± 0.53 |
| SDESKMCRMGYYLPALAIAW | -0.173 ± 0.82 |
| TIVSGTRSYNLHRSILLLHL | 1.5 ± 0.23 |
| RIVYLCSSGCVRKCWLLCSG | 2.29 ± 0.24 |
| RVGILRMYSMFQFFKSLQWI | -0.372 ± 0.86 |
| FEECLM | -0.059 ± 0.44 |
| ERDCAMISNLSNLTVNY | -0.616 ± 0.36 |
| LTEIVYTVGAEGTLWRSGAA | 0.298 ± 0.45 |
| ASCVGNINDCRPNIAFWVEE | 0.984 ± 0.84 |
| RVSKFPKSFNVSFKADNKIH | 4.02 ± 0.06 |

| Substance | amyloid nucleation score |
| --- | --- |
| TLVQCVSWISGSDKSHRMTI | -1.52 ± 2.7 |
| GVTSR | 1.25 ± 0.72 |
| LLSGNGQRLSSEQTCRELVG | -0.727 ± 0.28 |
| ERVSRSVGPACAREETKGST | 0.354 ± 0.77 |
| QASSGIDVNHFYAVNLTSML | 0.487 ± 0.97 |
| QVTVRM | 0.987 ± 0.24 |
| YYNVYTTYTASVWGTYRWNV | -1.45 ± 0.82 |
| IIVIIVLLDLDVSWVDYEVM | -0.157 ± 0.78 |
| FVLRRLALQ | -0.992 ± 0.39 |
| IKEFRYMLKRYLLWFVDLLL | 0.762 ± 0.59 |
| RFYMCRLEGVPFES | 0.58 ± 0.79 |
| RCFMFSTGEALTNEDRSLRR | 1.12 ± 0.6 |
| YTVRGRDYNGAM | -1.3 ± 2.4 |
| RNMLELSFWCYEMKNSSSWS | 1.15 ± 0.24 |
| KVLMTAGFYVVLRALKHRTK | 1.51 ± 0.34 |
| ANMYY | -0.279 ± 1.1 |
| FFCWTCSAINLYRLLGPPMF | 5.67 ± 0.064 |
| FGYTVFIDFVSSGMMRFGGQ | 0.784 ± 0.48 |
| LRNVVSYREDFECSWGCHRG | 0.724 ± 0.32 |
| LLDKTTVKVILCLFNDTINL | 7.855 ± 0.043 |
| RMQVKDLVDQVKTTFKCTHT | 0.303 ± 0.37 |
| VEIPHKKWNYVSHLLLSIHG | 0.307 ± 0.3 |

| Substance | amyloid nucleation score |
| --- | --- |
| VTMDCLMLPYRKGNPN | 0.996 ± 0.64 |
| LIKLLRVKRMYASYLFSNKV | -1.33 ± 1.6 |
| VWFRCWSPEVENGHVCLSCS | -0.026 ± 0.41 |
| VHNTRYSHVPNKKMRSVIRK | 1.44 ± 0.42 |
| TRISFRKGV | -0.54 ± 0.5 |
| FHICGFRYSHLGREPMKFGI | 2.23 ± 0.19 |
| VFLHVES | 1.85 ± 0.59 |
| SHLMPGCEKFLHCVSFPDA | -0.45 ± 0.56 |
| FALLFRLFRW | 0.539 ± 0.28 |
| VDLVGYVVGIFNVYKVVEDT | -0.321 ± 0.23 |
| CPRYLATNIFHAGECVNHSR | -1.08 ± 2.7 |
| KSRGRKSSGDFPIRGD | 4.84 ± 0.062 |
| GSYECFHHLYCGWQSLLWAN | 0.854 ± 0.39 |
| ISSLYLMSFCILFPPRKFVY | -1.09 ± 0.51 |
| RCTLISRHDWGYANWMRLLL | 4.81 ± 0.077 |
| SRPDVLYCDIFHFRHQILSF | -0.173 ± 0.75 |
| RITHRFVFTRAFTNGRALLR | 0.405 ± 0.27 |
| LIFVKDVTLVMHGEERYRRS | 5.508 ± 0.049 |
| YLNACGSSVRTKVRCSRVIL | -0.209 ± 0.91 |
| VLMMV | 1.28 ± 0.48 |
| WCSAMKISTRAPRWENIWSM | 0.612 ± 0.62 |
| MCSERMGFFIVSGVVLKLTH | 0.814 ± 0.57 |

| Substance | amyloid nucleation score |
| --- | --- |
| APPLSFEFL | 3.06 ± 0.092 |
| SVDRMAYRMCMRNVRLNLCT | 0.962 ± 0.37 |
| KGKPYFAEMLHIMSFVWSSD | 1.3 ± 0.6 |
| CWGLRLLSFVRRLV | 0.749 ± 1 |
| VEVLWVEDGSQF | -0.559 ± 0.31 |
| WSYAIKAISSMGAVTDASRM | -0.136 ± 0.31 |
| LYPMGYVRRCI | -0.29 ± 0.54 |
| LGFSSVYWESCSL | -0.275 ± 0.58 |
| GVLLGVTSFEFFMGTLEVAW | 0.188 ± 1 |
| RFWSIDRCAWSLMGGILRYG | -0.01 ± 0.43 |
| GKYKTFKNNITP | -0.416 ± 1.2 |
| FVRVANMVAWYNASRRLR | inactive |
| QVKDIGLPMHHACF | -1.36 ± 1.1 |
| SRVVSYSL | -0.5 ± 0.41 |
| SGFSGVRNHPRETQLCHGSA | -0.094 ± 0.33 |
| LQAAGLRFGRICLFLDK | -0.259 ± 1.2 |
| QVIEKFVAGCEGQKR | 2.31 ± 0.14 |
| PSYIHMVSGRFSFSSPRGQK | 0.029 ± 0.49 |
| VQDLYCIRYL | -1.39 ± 2.4 |
| CEGCDMGWLRSTNRQLMAYL | inactive |
